Measurements published in the supplement of paper PMC9170038.

Test system: MS2 coat protein
Assay: apparent KD of MS2 coat protein; designed switch direction (-1 OFF switch, 1 ON switch): -1; higher = weaker reporter binding
Settings: Eterna round: R98
Method: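 RNA-MaP: designed FMN/MS2 RNA switches (84 nt design region) are transcribed on-chip within common flanks and titrated with SNAP-549-labelled MS2 coat protein (about 1-3000 nM) in 100 mM Tris pH 7.5, 80 mM KCl, 4 mM MgCl2, without or with 200 uM FMN. Median apparent KD per design; activation ratio = KD,OFF / KD,ON.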

| Sequence | apparent KD of MS2 coat protein (input ligand: FMN 200 uM) [nM] | apparent KD of MS2 coat protein (input ligand: none) [nM] |
| --- | --- | --- |
| ACAUGGAAGCGAGGAUAUGCGGCGGAUUUAAACGCAGAAGGCGUUUAUUUAACUCGCAAUAACAUGAGGAUCACCCAUGUAUAA [AK-NGROCr2-ExNG1-5.1] | 59.4 | 55.9 |
| GGUUGUUACGCAGGAUAUUGCCAACAGGCAGUGGGAUAUCCGAAAGGAGAAGGUUCGCCAACAGGCGAGAAGGGCGGGUUAACC [pwkr exNG2 2xF7 2FMN.10.7] | 94 | 400 |
| AACCUGACAUAAUAAUGUAGAAAUACAUGAGGAUCACCCAUGUAGGAUAUGCAGUGGAAUACACUGCAGAAGGACAUAGUCAGG [Exclusion NG 3/8-B1] | 21.9 | 14.8 |
| UAAUAAUAAUAAUACGUCAAUUACAUGAGGAUCACCCAUGUAUAGGAUAUGCAGUGGAAUACACUGCAGAAGGAUACAAAGACG [Exclusion NG 3/3-B1] | 22.8 | 19.6 |
| UGUAAAAUUGAUCCUGCAAGUACAUGAGGAUCACCCAUGUGCUAGGAUAUCGCUCAGCUAAAGACCGAGAAGGAGCACAAUGUA [Adiraat] | 67.1 | 27.9 |
| GGAUAACAUGUAGGAUAUCCAGCAUUGACCAUCGGAGAAGGACAUGAGGAUCACCCAUGUACCGAUACAAUGGAAUAAGGGAAU [xclu_NG1_cac3] | 17.9 | 15.4 |
